Test results: PMC10786891, “Massively parallel profiling of RNA-targeting CRISPR-Cas13d”

T1: EsCas13d, nuclease-dead (Eubacterium siraeum, UniProt B0MS50, R295A;H300A;R849A;H854A)
T1 sequence: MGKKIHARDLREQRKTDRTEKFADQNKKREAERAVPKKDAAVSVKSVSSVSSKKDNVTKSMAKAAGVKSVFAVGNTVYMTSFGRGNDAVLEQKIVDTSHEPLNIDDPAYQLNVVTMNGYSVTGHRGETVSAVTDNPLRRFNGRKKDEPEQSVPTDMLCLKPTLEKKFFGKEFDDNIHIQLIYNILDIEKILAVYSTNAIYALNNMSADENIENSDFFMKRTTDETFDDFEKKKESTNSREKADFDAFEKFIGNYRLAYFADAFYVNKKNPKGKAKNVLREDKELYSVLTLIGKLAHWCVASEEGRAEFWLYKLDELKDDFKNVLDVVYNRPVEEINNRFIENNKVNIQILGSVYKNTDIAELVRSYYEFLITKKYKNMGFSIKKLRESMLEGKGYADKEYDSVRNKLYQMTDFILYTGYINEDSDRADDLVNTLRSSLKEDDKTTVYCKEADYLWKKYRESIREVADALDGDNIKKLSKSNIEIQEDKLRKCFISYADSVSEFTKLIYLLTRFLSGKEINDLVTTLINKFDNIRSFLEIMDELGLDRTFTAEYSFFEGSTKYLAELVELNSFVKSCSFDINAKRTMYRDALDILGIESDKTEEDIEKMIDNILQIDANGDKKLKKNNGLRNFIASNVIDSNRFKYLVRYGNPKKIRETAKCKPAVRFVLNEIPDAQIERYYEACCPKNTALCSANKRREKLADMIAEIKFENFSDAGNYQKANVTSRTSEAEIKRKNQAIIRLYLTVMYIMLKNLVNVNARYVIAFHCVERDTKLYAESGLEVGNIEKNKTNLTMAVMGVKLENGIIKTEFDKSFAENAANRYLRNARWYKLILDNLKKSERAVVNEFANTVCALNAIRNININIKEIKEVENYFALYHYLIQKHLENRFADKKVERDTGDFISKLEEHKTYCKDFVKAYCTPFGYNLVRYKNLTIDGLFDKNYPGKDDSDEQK


The binders below were run against T1, EsCas13d, nuclease-dead (assay: crRNA (strand 1, pre-loaded); Mg2+; 40 mM Tris-HCl pH 7.5, 150 mM NaCl, 6 mM MgCl2, 1 mM DTT, 0.1% Tween-20, 0.2 mg/ml BSA; 25 C; 10 min per concentration, then washed). Settings: tags: His6-TwinStrep-SUMO cleaved; N-terminal SNAP kept (SNAP-Surface 488); label: 3' end held by stalled T7 RNA polymerase.

Binder | Kd
target 1 insU 3' of 14,insU 3' of 9 (mixed) RNA 1: CACCCGUGCAAAAAUGCAGGGGUCUAAAACUGAGCGGAUAACCUCUCUAUGG RNA 2: GGGAAUGGAUCCACAUCUACGAAUUCGUACCAUAGAGAUGGUUAUUCCGCUCACCGAGAUCGGAAGAGCACACGU | 52 ± 9 nM
target 1 U8C,C22A (mixed) RNA 1: CACCCGUGCAAAAAUGCAGGGGUCUAAAACUGAGCGGAUAACCUCUCUAUGG RNA 2: GGGAAUGGAUCCACAUCUACGAAUUCGUAACAUAGAGAGGUUACCCGCUCACCGAGAUCGGAAGAGCACACGU | 21.9 ± 2.2 nM
target 1 insC 3' of 13,insA 3' of 13 (mixed) RNA 1: CACCCGUGCAAAAAUGCAGGGGUCUAAAACUGAGCGGAUAACCUCUCUAUGG RNA 2: GGGAAUGGAUCCACAUCUACGAAUUCGUACCAUAGAGAGCAGUUAUCCGCUCACCGAGAUCGGAAGAGCACACGU | 17.2 ± 1.6 nM
target 1 insC 3' of 8,insA 3' of 8 (mixed) RNA 1: CACCCGUGCAAAAAUGCAGGGGUCUAAAACUGAGCGGAUAACCUCUCUAUGG RNA 2: GGGAAUGGAUCCACAUCUACGAAUUCGUACCAUAGAGAGGUUAUCACCGCUCACCGAGAUCGGAAGAGCACACGU | 9.9 ± 0.5 nM
target 3 C1U,U7G (mixed) RNA 1: CACCCGUGCAAAAUUGCAGGGGUCUAAAACGACCUGAAUAUUUCAGAUCAAA RNA 2: GGGAAUGGAUCCACAUCUACGAAUUCGUUUUUGAUCUGAAAUAUGCAGGUUUGCAGAUCGGAAGAGCACACGU | ~40 nM
target 3 G3A,U8G (mixed) RNA 1: CACCCGUGCAAAAUUGCAGGGGUCUAAAACGACCUGAAUAUUUCAGAUCAAA RNA 2: GGGAAUGGAUCCACAUCUACGAAUUCGUUUUUGAUCUGAAAUAGUCAGAUCUGCAGAUCGGAAGAGCACACGU | 108 ± 33.5 nM
target 3 insU 3' of 22,insU 3' of 19 (mixed) RNA 1: CACCCGUGCAAAAUUGCAGGGGUCUAAAACGACCUGAAUAUUUCAGAUCAAA RNA 2: GGGAAUGGAUCCACAUCUACGAAUUCGUUUUUUGUAUCUGAAAUAUUCAGGUCUGCAGAUCGGAAGAGCACACGU | 54 ± 14.5 nM
target 3 insU 3' of 16,insG 3' of 1 (mixed) RNA 1: CACCCGUGCAAAAUUGCAGGGGUCUAAAACGACCUGAAUAUUUCAGAUCAAA RNA 2: GGGAAUGGAUCCACAUCUACGAAUUCGUUUUUGAUCUUGAAAUAUUCAGGUCGUGCAGAUCGGAAGAGCACACGU | 45.5 ± 11.5 nM
target 3 U7C,U8A (mixed) RNA 1: CACCCGUGCAAAAUUGCAGGGGUCUAAAACGACCUGAAUAUUUCAGAUCAAA RNA 2: GGGAAUGGAUCCACAUCUACGAAUUCGUUUUUGAUCUGAAAUAACCAGGUCUGCAGAUCGGAAGAGCACACGU | 114 ± 28 nM
target 3 A11C,U15C (mixed) RNA 1: CACCCGUGCAAAAUUGCAGGGGUCUAAAACGACCUGAAUAUUUCAGAUCAAA RNA 2: GGGAAUGGAUCCACAUCUACGAAUUCGUUUUUGAUCCGAACUAUUCAGGUCUGCAGAUCGGAAGAGCACACGU | 50 ± 9 nM
target 3 C6U,C16U (mixed) RNA 1: CACCCGUGCAAAAUUGCAGGGGUCUAAAACGACCUGAAUAUUUCAGAUCAAA RNA 2: GGGAAUGGAUCCACAUCUACGAAUUCGUUUUUGAUUUGAAAUAUUUAGGUCUGCAGAUCGGAAGAGCACACGU | 84.5 ± 20 nM
target 3 insA 3' of 21,insC 3' of 5 (mixed) RNA 1: CACCCGUGCAAAAUUGCAGGGGUCUAAAACGACCUGAAUAUUUCAGAUCAAA RNA 2: GGGAAUGGAUCCACAUCUACGAAUUCGUUUUAUGAUCUGAAAUAUUCACGGUCUGCAGAUCGGAAGAGCACACGU | 69.5 ± 11.5 nM
target 3 U7C,U22A (mixed) RNA 1: CACCCGUGCAAAAUUGCAGGGGUCUAAAACGACCUGAAUAUUUCAGAUCAAA RNA 2: GGGAAUGGAUCCACAUCUACGAAUUCGUUAUUGAUCUGAAAUAUCCAGGUCUGCAGAUCGGAAGAGCACACGU | 88.5 ± 21.5 nM
target 3 insA 3' of 21,insA 3' of 21 (mixed) RNA 1: CACCCGUGCAAAAUUGCAGGGGUCUAAAACGACCUGAAUAUUUCAGAUCAAA RNA 2: GGGAAUGGAUCCACAUCUACGAAUUCGUUUUAAUGAUCUGAAAUAUUCAGGUCUGCAGAUCGGAAGAGCACACGU | 29.8 ± 4.05 nM
target 3 insU 3' of 6,insU 3' of 5 (mixed) RNA 1: CACCCGUGCAAAAUUGCAGGGGUCUAAAACGACCUGAAUAUUUCAGAUCAAA RNA 2: GGGAAUGGAUCCACAUCUACGAAUUCGUUUUUGAUCUGAAAUAUUCUAUGGUCUGCAGAUCGGAAGAGCACACGU | 7.93 ± 0.61 nM
target 3 insA 3' of 7,insC 3' of 3 (mixed) RNA 1: CACCCGUGCAAAAUUGCAGGGGUCUAAAACGACCUGAAUAUUUCAGAUCAAA RNA 2: GGGAAUGGAUCCACAUCUACGAAUUCGUUUUUGAUCUGAAAUAUUACAGGCUCUGCAGAUCGGAAGAGCACACGU | 26.1 ± 2.35 nM
target 3 U2C,A11C (mixed) RNA 1: CACCCGUGCAAAAUUGCAGGGGUCUAAAACGACCUGAAUAUUUCAGAUCAAA RNA 2: GGGAAUGGAUCCACAUCUACGAAUUCGUUUUUGAUCUGAACUAUUCAGGCCUGCAGAUCGGAAGAGCACACGU | 54.5 ± 7.7 nM
target 3 insG 3' of 9,insA 3' of 4 (mixed) RNA 1: CACCCGUGCAAAAUUGCAGGGGUCUAAAACGACCUGAAUAUUUCAGAUCAAA RNA 2: GGGAAUGGAUCCACAUCUACGAAUUCGUUUUUGAUCUGAAAUAGUUCAGAGUCUGCAGAUCGGAAGAGCACACGU | 60 ± 26.5 nM
target 3 insU 3' of 22,insA 3' of 4 (mixed) RNA 1: CACCCGUGCAAAAUUGCAGGGGUCUAAAACGACCUGAAUAUUUCAGAUCAAA RNA 2: GGGAAUGGAUCCACAUCUACGAAUUCGUUUUUUGAUCUGAAAUAUUCAGAGUCUGCAGAUCGGAAGAGCACACGU | 69.5 ± 15.5 nM
target 3 insG 3' of 1,insG 3' of 1 (mixed) RNA 1: CACCCGUGCAAAAUUGCAGGGGUCUAAAACGACCUGAAUAUUUCAGAUCAAA RNA 2: GGGAAUGGAUCCACAUCUACGAAUUCGUUUUUGAUCUGAAAUAUUCAGGUCGGUGCAGAUCGGAAGAGCACACGU | 85 ± 31.5 nM
target 3 insA 3' of 10 (mixed) RNA 1: CACCCGUGCAAAAUUGCAGGGGUCUAAAACGACCUGAAUAUUUCAGAUCAAA RNA 2: GGGAAUGGAUCCACAUCUACGAAUUCGUUUUUGAUCUGAAAUAAUUCAGGUCUGCAGAUCGGAAGAGCACACGU | 55.5 ± 13 nM
target 3 insA 3' of 4,insG 3' of 2 (mixed) RNA 1: CACCCGUGCAAAAUUGCAGGGGUCUAAAACGACCUGAAUAUUUCAGAUCAAA RNA 2: GGGAAUGGAUCCACAUCUACGAAUUCGUUUUUGAUCUGAAAUAUUCAGAGUGCUGCAGAUCGGAAGAGCACACGU | 49 ± 7 nM
target 3 insC 3' of 5,insU 3' of 3 (mixed) RNA 1: CACCCGUGCAAAAUUGCAGGGGUCUAAAACGACCUGAAUAUUUCAGAUCAAA RNA 2: GGGAAUGGAUCCACAUCUACGAAUUCGUUUUUGAUCUGAAAUAUUCACGGUUCUGCAGAUCGGAAGAGCACACGU | 7.75 ± 0.6 nM
target 3 insA 3' of 7,insG 3' of 5 (mixed) RNA 1: CACCCGUGCAAAAUUGCAGGGGUCUAAAACGACCUGAAUAUUUCAGAUCAAA RNA 2: GGGAAUGGAUCCACAUCUACGAAUUCGUUUUUGAUCUGAAAUAUUACAGGGUCUGCAGAUCGGAAGAGCACACGU | 42 ± 6.5 nM
target 3 insC 3' of 4,insA 3' of 4 (mixed) RNA 1: CACCCGUGCAAAAUUGCAGGGGUCUAAAACGACCUGAAUAUUUCAGAUCAAA RNA 2: GGGAAUGGAUCCACAUCUACGAAUUCGUUUUUGAUCUGAAAUAUUCAGCAGUCUGCAGAUCGGAAGAGCACACGU | 21.8 ± 2.15 nM
target 3 complement block 1-3 (mixed) RNA 1: CACCCGUGCAAAAUUGCAGGGGUCUAAAACGACCUGAAUAUUUCAGAUCAAA RNA 2: GGGAAUGGAUCCACAUCUACGAAUUCGUUUUUGAUCUGAAAUAUUCAGCAGUGCAGAUCGGAAGAGCACACGU | 23.1 ± 3.9 nM
target 3 insC 3' of 22,insU 3' of 4 (mixed) RNA 1: CACCCGUGCAAAAUUGCAGGGGUCUAAAACGACCUGAAUAUUUCAGAUCAAA RNA 2: GGGAAUGGAUCCACAUCUACGAAUUCGUUUCUUGAUCUGAAAUAUUCAGUGUCUGCAGAUCGGAAGAGCACACGU | 8.75 ± 2.3 nM
target 3 complement block 1-7 (mixed) RNA 1: CACCCGUGCAAAAUUGCAGGGGUCUAAAACGACCUGAAUAUUUCAGAUCAAA RNA 2: GGGAAUGGAUCCACAUCUACGAAUUCGUUUUUGAUCUGAAAUAUAGUCCAGUGCAGAUCGGAAGAGCACACGU | 57 ± 8.5 nM
